The DeepSol protein solubility set

Experiment: soluble on expression in E. coli; label from the status in PepcDB or PDB records

| Sequence | soluble on expression in E. coli |
| --- | --- |
| MGSDKIHHHHHHMDTPINAPLRKLPIGIQSFEKLRSENFLYVDKTALIYRLAQAGNPCFLSRPRRFGKSLLLSSFEAYFQGKKELFRGLAIEKLEKEWLQYPVLHLSLNAEKYDSREGLIDILERQLRQWEELYRTGGEGITHSGRFMTVIRRACEQTGRRVVVLIDEYDKPLLRSFDSQELQHDFRETLTAFYTVLKDADPWLQFVFITGVTKFAQMGIFSNLNQLNDISFDLDYNTLCGMTRAEIEATFSPELEALAVKSNATCRQVMDRLTRQYDGYRFTKDEEFTSMYNPFSVLSALQKRSYGNYWFASGTPTFLVEMLQKTDFDLREMEGIEVNEASLSDDRADINNPIPMIYQSGYLTIKDYDERFRMYTLGFPNEEVKYGFLNFVSPFYTPIAQTDTSFYIGKFIRELESGDVDAFLTRLRCFFAGIPYDLNDRTERHYQTVFYLVFQLMGQFTETEVRSARGRADAVVKTPDYIYVFEFKLNDSAEAALRQIDEKGYLLPYQADGRKVVKVGVAFEKEERNIGEWMIGG | not soluble |
| MHHHHHHSSGRENLYFQGGSLLELQKKYHLKGAIGQGSYGVVRVAIENQTRAIRAIKIMNKNKIRQINPKDVERIKTEVRLMKKLHHPNIARLYEVYEDEQYICLVMELCHGGHLLDKLNVFIDDSTGKCAMDVVKTQICPCPECNEEAINGSIHGFRESLDFVQREKLISNIMRQIFSALHYLHNQGICHRDIKPENFLFSTNKSFEIKLVDFGLSKEFYKLNNGEYYGMTTKAGTPYFVAPEVLNTTNESYGPKCDAWSAGVLLHLLLMGAVPFPGVNDADTISQVLNKKLCFENPNYNVLSPLARDLLSNLLNRNVDERFDAMRALQHPWISQFSDKIYKMS | soluble |
| MSLSNAVAQDLMTIADIVEATTTAPIPFHITAFDGSFTGPEDAPYQLFVANTDAVSYIATAPGDLGLARAYLMGDLIVEGEHPGHPYGIFDALKEFYRCFKRPDASTTLQIMWTLRKMNALKFQEIPPMEQAPAWRKALINGLASRHSKSRDKKAISYHYDVGNEFYSLFLDDSMTYTCAYYPTPESSLEEAQENKYRLIFEKLRLKEGDRLLDVGCGWGGMVRYAAKHGVKAIGVTLSEQQYEWGQAEIKRQGLEDLAEIRFMDYRDVPETGFDAISAIGIIEHIGVNNYPDYFELLSSKLKTGGLMLNHSITYPDNRPRHAGAFIDRYIFPDGELTGSGTLIKHMQDNGFEVLHEENLRFDYQRTLHAWCENLKENWEEAVELAGEPTARLFGLYMAGSEWGFAHNIVQLHQVLGVKLDEQGSRGEVPERMWWTEGHHHHHH | soluble |
| MSLTPDPAIDEVTARVYQIPTDAPEADGTLSWSSTTLVLAEVAAGGRRGIGYTYGDGACAQLITGALAGSVTGHSALDVAARWQAMVRAMRNNGRPGLVSCAISAVDTALWDLKGKLLGLPVCRLLGMAHDSVPIYGSGGFTSYDDNATRAQLERWVHEWRIPRVKIKIGESWGSHERRDLDRIALARTVIGPDTELYVDANGGYRRKQAIRMAHAMAGHDVTWFEEPVSSDDLAGLREVRDQVSADVTAGEYGYDLAYFHRMLAADAVDCLQIDVTRCGGITDWLRAAAVAAAHNVDVSGHCAPNLHAHVATAVANLRHLEYFHDHHRIEQMFFDGALSPQGGVLRPDQQRPGFGLEFKQRDADRYRMREGHHHHHH | soluble |
| SSIRFYLAPNDADFTVYYTGTDGNWYETKATYKKVSVKKYEVTLPEITIGGAAEIEFKGVHRGPPNTVISAKFDVVGGTTQPEPEPDPAPEPQPAPEPEPGTSVNPAAPTAVDPATAPSCVEKGYINIPDTKGVDYFIGGELKHAGQHFYEGQKASVKVTAKPQNGYQFAAGAKTEWSFDFSGEVKDCSDSSEDPKPAAVEGRHFDAIGHEFAVEADPVDPTKPNAFTAKVTAESHMKYATVRIETDATFLDPQKYNLTLDQIEPGVTLQKRNVNIGNGFITMDVVPVKDGKPVDSAVVPKDAVFTFTNNLSENKNLKIALDVYGANKSTPKPPDIISPPDGAQWVHGRVPNPPMPKRCGLRIAVVADLSTSLKYADSNGFDESKKAANALIDSLAGTPAELGIYNFAGGAPRNPAGSTYGQNPPYISLQSDDGVSRAKSIVSNWNGNGSTNWEAGLKQVAAGNYDVVYFITDGMPTYSSKAPQLGLGGEFVQESALNQAIDAANELKAAGTRVVPIMVDLTVGGKNAQHTTVTQDLVLKNVRFWKRGTSNSEPGLYFQFTNKYVDAASYVGDDTTANFEIAYKNGGFKVWERTSRGRNIDVTRDQSKWTYGPREVKTMGEDISGTGDTIRVEQYSQLAAQMKKIGEELALRCNGVVKVKKRIVDENGRAIEDGVPGWEFTLSAGGQDIIDPGNGDRVRKSLKATSSANEDRGTASWNIMSEQEQQLTLVETQQPGFNLYKRNDKNAVCTETRDGVMKPIEVTNDGEFGFKVKMRAKDKKLSSVSCVVDNYKQPETPPGKLTFKKAQYNGDKIEEIPGLGGATFEIYPSKGDQPDYSAEALYTIKPGQESIEVKTTGTFFLVETKAPKGLNLLAQPVKFEISVDETTKKYKISVGSTSSGQVQAKGEGDKMILTVADTTAGELPKTGG | not soluble |
| QGHMAWSAQQYLKFEDERTRPARDLLAQVPLERVLNGYDLGCGPGNSTELLTDRYGVNVITGIDSDDDMLEKAADRLPNTNFGKADLATWKPAQKADLLYANAVFQWVPDHLAVLSQLMDQLESGGVLAVQMPDNLQEPTHIAMHETADGGPWKDAFSGGGLRRKPLPPPSDYFNALSPKSSRVDVWHTVYNHPMKDADSIVEWVKGTGLRPYLAAAGEENREAFLADYTRRIAAAYPPMADGRLLLRFPRLFVVAVKK | soluble |
| MKAARQQAIVDLLINHKSLTTEALATRLNVSKETIRRDLSELQTQGKVLRNHGRAKYIHRENQDSGDPFHIRLKSHYAHKADIAREALAWIEEGMTIALDASSTCWYLARQLPDIPIQVFTNSHPICQELGKRERIALISSGGQLERKYGCYVNPSLISQLKSLDIDLFIFSCEGIDSGGDLWDSNAINADFKSILLRRASQSLLLIDKSKFNRSGEARIGHLDDVTHIVSDAPQSLEHHHHHH | soluble |
| MCMDEIKKWKNVKAKKITETLNKRHFKASYVETLEEAKEKLISMIEEGSSVAIGGSTTLSQMGMVDVLRNGNYKFFDRYQNLPFDPDIVEIHRKSLTADYLITGTNAITENGELVNTDCTGNRVAPMIFGPKNVIIVAGINKIVENIDAALKRIREIAPMNSKRIKHETPCVETGFCVDCDCKKRICNFTTIIHNGIKFEGRIKIIIIADELGYLEHHHHHH | not soluble |
| MGSDKIHHHHHHGCKEKDMSMKMNEPHNIKGVISYKRSFGDLNDTHLSVAKKIGIRPLASRSEAEGLGGKLVQIKPCERYAMDSLTHSIPFLIPQASALLDTIGANFLDSLSCKGLNPNQIIVTSVLRTADDVKRLRRRNGNASANSAHAFGTTFDVSYRRFCKVEDPDGRPMQDVSPDTLKLVLAEVLRDLRKSDKCYIKYELKQGCFHITAR | not soluble |
| MRLKKIGEWLNASPEDQDKQNADLLQTLSKLTGKQLDANALQMLQNLLQAVESKNVSGTDQLLTETEKIFSEAKTALSANDSASDINGALKSDKEQSNQENEVSEPAKELIYIQMFISQLVEGNKLTDLGNGNEAHAIYQNGDQFLSALEKKGVSQQLIQDLKQQIFTKAESSSKLYSMTASELKSFQSLMDQMSMLPQKGTKEWSLAETQLKAFLLSKSSESSQDFGKSVLTPLSQSSSSKNASDVSGSIQPVDSKSGLQMLFSGYRGIGGVQTLDLQQMSSDIPNAETKTVADQVINAWKQMKYTPFGRSTGSFTIRLNPEHLGFVTIKLTNENGMFQSKIIASSQSAKELLEQHLPQLKQSLPNMAVQIDRFTLPVQSGDQPIYGQLADEQKQQQEGQRQQRQKKQSNDFGDLLDEVSMVEMEEEE | soluble |
| KTISLYKDSIPKEKTEGTDAILISDNQLINQLQTAAKTSSSQNKANTAAITFKQSNKSETDQSTTSQVIGYTTTASLKADKKNIFDVKKLNNEKSERKIIVGATVETLNQANTLQANEAIIKPAPGKYQSTDSHKVMITQGPNIVGIHANEKEDKETQKFINW | soluble |
| MKIAIVGTGISGLTCGYYLHQQHDITLFEANDYIGGHTATVDVRVGIEDYAIDTGFIVYNDRTYPNFIKMMNEIGVEGIPTQMSFSVRNDGNGLEYNGHTLTTLFAQKRNWLNPKFYRFVLEILRFNKLAKASATEQISSSQSLGAFLDEHQFSDFFSDNYILPMGAAIWSSSLADMRAFPLMFFLRFFLNHGLLDVTNRPQWYVIKGGSRAYIPPLTQGFADKIRLNSPVEKVVRSEQGVAIYANGQCEWFDEVIFACHSDQALAMLSDASSCENDILSNMAYQANDVVLHTDTSVLPKRKSAWASWNYLLEGGEEEQQRLPSLTYNMNILQHIDSSHTFCVTLNRTEDIDENKILRQFTYHHPVFTTESIAAQQRKEEIQGAQHTWFCGAYWYNGFHEDGVRSALDVVKGIAAKHNEKNDTLYEQGAALEHHHHHH | soluble |
| MSNTVATMINKRNIMRNYIKIGVAGPVGAGKTALIEKLTREIASKYSVAVITNDIYTQEDAEFLTKNSLLPPERIMGVETGGCPHTAIREDASMNLEAVDEMVTRFPDVEIVFIESGGDNLSATFSPDLADVTIFVIDVAQGEKIPRKGGPGITRSDLLVINKTDLAPFVGADLSVMERDARRMRNGQPFIFTNLMKKENLDGVIGWIEKYALLKNVEEPASLVRLEHHHHHH | soluble |
| STSSDPQSHNVFVYGSILEPAVAAVILDRTADTVPAVLHGYHRYKLKGLPYPCIVSSDSGKVNGKVITGVSDAELNNFDVIEGNDYERVTVEVVRMDNSEKVKVETYVWVNKDDPRMYGEWDFEEWRVVHAEKFVETFRKMLEWNKNPNGKSMEEAVGSLLSSGD | soluble |
| MPDELKPHFANVQAHYDLSDDFFRLFLDPTQTYSCAYFERDDMTLQEAQIAKIDLALGKLGLQPGMTLLDVGCGWGATMMRAVEKYDVNVVGLTLSKNQANHVQQLVANSENLRSKRVLLAGWEQFDEPVDRIVSIGAFEHFGHERYDAFFSLAHRLLPADGVMLLHTITGLHPKEIHERGLPMSFTFARFLKFIVTEIFPGGRLPSIPMVQECASANGFTVTRVQSLQPHYAKTLDLWSAALQANKGQAIALQSEEVYERYMKYLTGCAEMFRIGYIDVNQFTCQK | soluble |
| MKKNMLRIMATVTIMGGLFVSTNVPNVKAEEYPEMIVFDDVPVNHWAYDDIMDVVYNKVMLGYGNGKFGVGDNVTREQVAAVLYRTLNLKKEGPLKNPYKDISERATFFLDEILVLTKHGIFEGDEKGNFRPAAPVTRAETAQILTKAFTFEVKKNHTFKDVPNNHWAKNAISALQSNHVIVGTGNGKFEPNKVVTREQYATFLNKAVFYFPVKDENYE | not soluble |
| MKFWKKGLTAAALLAVAAVTLTACGGSSEKKATEKSEDGKTKLTVTTWNYDTTPEFEKLFRAFEAENPDITIEPVDIASDDYDTKVTTMLSSGDTTDILTMKNLLSYSNYALRNQLVDLTDHVKDLDIEPAKASYEMYEIDGKTYAQPYRTDFWVLYYNKKMFDEAGIAYPDNLTWDEYEALAKKLSKPEEQVYGAYQHTWRSTVQAIAAAQNNANLIEPKYNYMETYYDRALRMQKDQSQMDFGTAKSTKVTYQSQFENSKAAMMYMGSWYMGTLLTNIDDGKTNVEWGIAEIPQQEKGKATTFGSPTSFAINKNSKKQKAAQKFLDFASGKEGAKLLAEVGVVPSYKTDEIDKIYFARKGMPSDEVSQKAFNPDTINLEFPSDKNGAAIDKVLQEEHDLIMVGDEKPKDGIANMEKRVKAEID | not soluble |
